Test results published in patent CN114181311A (dated 2022).

Legend:
[1] = target: T1, His-DLL3胞外区蛋白 (Human DLL3 Protein, His Tag, ACRO DL3-H52H4) (human, UniProt Q9NYJ7 27-492); test: phage ELISA, scFv shown on M13 phage, coated DLL3-His 1 ug/ml, anti-M13-HRP
T1 construct: extracellular domain; Bought protein; also called DLL3-His; DLL3抗原; not shown: His tag
T1 sequence (looked up): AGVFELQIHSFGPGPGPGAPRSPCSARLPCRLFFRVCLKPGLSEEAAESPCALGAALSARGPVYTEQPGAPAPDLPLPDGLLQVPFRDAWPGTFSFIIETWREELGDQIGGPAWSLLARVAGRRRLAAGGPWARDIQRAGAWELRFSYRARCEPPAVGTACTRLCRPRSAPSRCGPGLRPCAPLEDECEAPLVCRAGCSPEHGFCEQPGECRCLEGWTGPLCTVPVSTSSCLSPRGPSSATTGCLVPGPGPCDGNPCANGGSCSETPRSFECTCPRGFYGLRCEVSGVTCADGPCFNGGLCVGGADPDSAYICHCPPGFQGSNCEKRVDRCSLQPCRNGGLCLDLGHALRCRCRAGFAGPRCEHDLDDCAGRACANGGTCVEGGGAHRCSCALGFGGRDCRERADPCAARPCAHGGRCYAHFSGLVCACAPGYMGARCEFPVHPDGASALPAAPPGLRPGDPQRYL

BSA(牛血清白蛋白) [2] = target: T2, BSA(牛血清白蛋白) (bovine, UniProt P02769 25-607); test: ELISA, periplasmic extract with soluble scFv on coated BSA, anti-c-myc-HRP detection
[3] = target: T1, His-DLL3胞外区蛋白 (Human DLL3 Protein, His …); test: ELISA, 293T culture supernatant, coated DLL3-His 1 ug/ml, anti-human IgG-Fc-HRP
小细胞肺癌细胞系SHP-77上表达的DLL3抗原 = target: T3, 小细胞肺癌细胞系SHP-77上表达的DLL3抗原 (UniProt Q9NYJ7 27-618); test: flow cytometry on SHP-77 cells, PE anti-human Fc detection
T3 construct: whole, on cells; Endogenous DLL3 on SHP-77 cells; also called DLL3 on SHP-77 cells
T3 sequence (looked up): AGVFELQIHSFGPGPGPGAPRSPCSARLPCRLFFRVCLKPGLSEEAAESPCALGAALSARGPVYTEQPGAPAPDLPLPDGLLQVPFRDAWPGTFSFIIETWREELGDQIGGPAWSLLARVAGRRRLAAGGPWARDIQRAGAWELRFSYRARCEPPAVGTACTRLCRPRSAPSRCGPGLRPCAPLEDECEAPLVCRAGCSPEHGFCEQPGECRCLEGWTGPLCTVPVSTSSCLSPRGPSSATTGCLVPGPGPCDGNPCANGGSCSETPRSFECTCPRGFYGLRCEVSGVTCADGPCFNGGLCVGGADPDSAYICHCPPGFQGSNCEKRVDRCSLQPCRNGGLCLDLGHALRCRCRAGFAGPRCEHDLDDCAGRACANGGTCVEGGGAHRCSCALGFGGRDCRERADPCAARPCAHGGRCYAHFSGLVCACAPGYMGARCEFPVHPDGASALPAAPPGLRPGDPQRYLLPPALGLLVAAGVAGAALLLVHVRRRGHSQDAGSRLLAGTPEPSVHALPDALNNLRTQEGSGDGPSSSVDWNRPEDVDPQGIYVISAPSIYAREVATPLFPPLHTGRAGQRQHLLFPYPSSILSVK

BSA(牛血清白蛋白) [4] = target: T2, BSA(牛血清白蛋白); test: ELISA, 293T culture supernatant on coated BSA, anti-human IgG-Fc-HRP detection

T2 sequence (P02769 25-607 limits assumed): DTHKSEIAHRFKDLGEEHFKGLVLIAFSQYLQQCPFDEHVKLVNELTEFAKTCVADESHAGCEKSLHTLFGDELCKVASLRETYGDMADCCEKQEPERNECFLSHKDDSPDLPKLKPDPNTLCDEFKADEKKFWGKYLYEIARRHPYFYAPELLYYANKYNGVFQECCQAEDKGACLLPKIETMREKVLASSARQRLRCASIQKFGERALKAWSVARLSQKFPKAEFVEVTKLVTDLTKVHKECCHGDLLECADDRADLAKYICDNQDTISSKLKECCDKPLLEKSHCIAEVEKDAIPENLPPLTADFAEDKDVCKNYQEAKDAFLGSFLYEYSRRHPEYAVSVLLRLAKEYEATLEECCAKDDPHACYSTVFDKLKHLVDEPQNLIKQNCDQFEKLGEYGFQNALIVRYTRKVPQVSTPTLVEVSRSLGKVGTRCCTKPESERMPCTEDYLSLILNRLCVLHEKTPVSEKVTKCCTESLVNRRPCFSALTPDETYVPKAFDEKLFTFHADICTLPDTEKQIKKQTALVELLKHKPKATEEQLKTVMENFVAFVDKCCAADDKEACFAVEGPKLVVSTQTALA

B1: 抗DLL3 scFv G8 (G8-scFv) (scFv)
scFv: QVQLQQSGPGLVKPSQTLSLTCAISGDSVSSDSVAWSWIRQSPSRGLEWLGRTYYRSKWYYDYAASVKSRISINPDTSKNQFSLQLNSVTPEDTAVYYCAREPLRYGSSWWDAFDIWGQGTMITVSSGSASAPTLGGGGSGGGGSGGGGSQSALTQPPSVSGSPGQAVTISCTGTSSDVGRYNYVSWYQQHPGKVPKLILFDVSSRPSGVSHRFSGSKSGNTASLTISGLQAEDEADYYCTSYRSGSEVFGGGTKLTVL
notes: Fully human scFv from a phage library; also called 抗DLL3阳性克隆G8; 抗DLL3可溶性抗体G8
binding result [1]: binds
binding result (BSA(牛血清白蛋白) [2]): no binding

B2: G8 scFv-hFc (Fc fusion)
chain: QVQLQQSGPGLVKPSQTLSLTCAISGDSVSSDSVAWSWIRQSPSRGLEWLGRTYYRSKWYYDYAASVKSRISINPDTSKNQFSLQLNSVTPEDTAVYYCAREPLRYGSSWWDAFDIWGQGTMITVSSGSASAPTLGGGGSGGGGSGGGGSQSALTQPPSVSGSPGQAVTISCTGTSSDVGRYNYVSWYQQHPGKVPKLILFDVSSRPSGVSHRFSGSKSGNTASLTISGLQAEDEADYYCTSYRSGSEVFGGGTKLTVL
notes: Expressed in 293T cells and tested as culture supernatant; also called G8 scFv-hFc重组蛋白; not shown: human IgG1 Fc segment from the mammalian expression vector PUTAM003
binding result [3]: binds
binding result (小细胞肺癌细胞系SHP-77上表达的DLL3抗原): binds
binding result (BSA(牛血清白蛋白) [4]): no binding

B3: 抗DLL3 scFv A7 (A7-scFv) (scFv)
scFv: QVQLVQSGAEVKKPGASVKVSCKASGYTFTSYYMHWVRQAPGQGLEWMGIINPSGGSTSYAKKFQGRVTMTRDTSTSTVYMELNRVTSDDTAVYYCARGGGVTGFDYWGQGTLVTVSSGSASAPTLGGGGSGGGGSGGGGSDIQMTQSPSSLSASLGDRVTITCRASQTVRTYLNWYQQKPGKAPNLLIYGASSLQSGVPSRFSGSGSGTDFTLTINSLQPEDFGTYYCQQSDTPPLTFGGGTKVEIK
notes: Fully human scFv from a phage library; also called 抗DLL3阳性克隆A7; 抗DLL3可溶性抗体A7
binding result [1]: binds
binding result (BSA(牛血清白蛋白) [2]): no binding

B4: A7 scFv-hFc (Fc fusion)
chain: QVQLVQSGAEVKKPGASVKVSCKASGYTFTSYYMHWVRQAPGQGLEWMGIINPSGGSTSYAKKFQGRVTMTRDTSTSTVYMELNRVTSDDTAVYYCARGGGVTGFDYWGQGTLVTVSSGSASAPTLGGGGSGGGGSGGGGSDIQMTQSPSSLSASLGDRVTITCRASQTVRTYLNWYQQKPGKAPNLLIYGASSLQSGVPSRFSGSGSGTDFTLTINSLQPEDFGTYYCQQSDTPPLTFGGGTKVEIK
notes: Expressed in 293T cells and tested as culture supernatant; also called A7 scFv-hFc重组蛋白; 抗DLL3单链抗体(scFv-hFc); not shown: human IgG1 Fc segment from the mammalian expression vector PUTAM003
binding result [3]: binds
binding result (小细胞肺癌细胞系SHP-77上表达的DLL3抗原): binds
binding result (BSA(牛血清白蛋白) [4]): no binding
